Tests used:
[1] = biological target: T1, SS18 (human, UniProt Q15532 2-418, limits assumed); test: HA affinity purification from HEK-293T nuclear extract, glycerol gradient fraction 15, mass spectrometry (co-purification in the complex)
T1 construct: also called Q15532_SSXT

[2] = biological target: T2, ARID2 (human, UniProt Q68CP9 2-1835); test: as above
T2 construct: also called BAF200; Q68CP9_ARID2

[3] = biological target: T3, SMARCA4 (human, UniProt P51532 1-1647, limits assumed); test: as above
T3 construct: also called BRG1; BAF190

[4] = biological target: T4, PBRM1, entry C9J053 (13.6 kDa) (human); test: as above
T4 construct: Separate fragment entry; gene symbol cut off in print; also called C9J053_C9J053

[5] = biological target: T5, DPF3, entry F8W7T1 (46.4 kDa) (human); test: as above
T5 construct: Separate database entry of DPF3; also called F8W7T1_F8W7

[6] = biological target: T6, SMARCA2 (human, UniProt P51531 1-1590, limits assumed); test: as above
T6 construct: also called BRM; BAF190

[7] = biological target: T7, DPF1, entry C8C3P2 (45.0 kDa) (human); test: as above
T7 construct: Separate database entry of DPF1; also called C8C3P2_C8C3

[8] = biological target: T8, A0A0A0MT49 (gene symbol printed cut off as 'SMA', about 188 kDa) (human); test: as above
T8 construct: Separate database entry of the search; gene symbol cut off in print

[9] = biological target: T9, ARID1B (human, UniProt Q8NFD5 84-2319, limits assumed); test: as above
T9 construct: also called BAF250B; Q8NFD5_ARI1B

[10] = biological target: T10, SMARCC2 (human, UniProt Q8TAQ2 1-1214, limits assumed); test: as above
T10 construct: also called BAF170; Q8TAQ2_SMRC2

[11] = biological target: T11, SMARCE1 (human, UniProt Q969G3 1-411); test: as above
T11 construct: also called BAF57; Q969G3_SMCE1

[12] = biological target: T12, H0Y3S9 (gene symbol printed cut off as 'ARID', 29.4 kDa) (human); test: as above
T12 construct: Which ARID gene is meant cannot be told from the print

[13] = biological target: T13, SMARCC1 (human, UniProt Q92922 2-1105); test: as above
T13 construct: also called BAF155; Q92922_SMRC1

[14] = biological target: T14, ARID1A (human, UniProt O14497 2-2285); test: as above
T14 construct: also called BAF250A; O14497_ARI1A

[15] = biological target: T15, G5E975 (gene symbol printed cut off as 'SMA', 45.0 kDa) (human); test: as above
T15 construct: Separate database entry of the search; gene symbol cut off in print

[16] = biological target: T16, SMARCA4 (human, UniProt P51532 1-1647, limits assumed); test: inter-protein BS3 crosslinks (CX-MS), HA-BRD7-purified PBAF complexes from HEK-293T
T16 construct: Endogenous PBAF subunit; numbering on the printed UniProt entry; also called BRG1; BAF190

[17] = biological target: T17, SMARCC1 (SWI/SNF related, matrix associated, actin dependent regulator of chromatin subfamily c member 1) (human, UniProt Q92922 1-1105); test: HA-GLTSCR1L purification from HEK-293T cells, silver stain and gradient MS
T17 construct: also called BAF155; HA-SMARCC1

[18] = biological target: T18, SMARCA4 (SWI/SNF related, matrix associated, actin dependent regulator of chromatin, subfamily a, member 4) (human, UniProt P51532 1-1647, limits assumed); test: inter-protein BS3 crosslink, CX-MS of HA-PHF10-purified PBAF complexes from HEK-293T cells
T18 construct: Endogenous subunit co-purified in native PBAF complex; The crosslink positions count on P51532; also called BRG1; BAF190

T14 sequence (O14497 2-2285 limits assumed): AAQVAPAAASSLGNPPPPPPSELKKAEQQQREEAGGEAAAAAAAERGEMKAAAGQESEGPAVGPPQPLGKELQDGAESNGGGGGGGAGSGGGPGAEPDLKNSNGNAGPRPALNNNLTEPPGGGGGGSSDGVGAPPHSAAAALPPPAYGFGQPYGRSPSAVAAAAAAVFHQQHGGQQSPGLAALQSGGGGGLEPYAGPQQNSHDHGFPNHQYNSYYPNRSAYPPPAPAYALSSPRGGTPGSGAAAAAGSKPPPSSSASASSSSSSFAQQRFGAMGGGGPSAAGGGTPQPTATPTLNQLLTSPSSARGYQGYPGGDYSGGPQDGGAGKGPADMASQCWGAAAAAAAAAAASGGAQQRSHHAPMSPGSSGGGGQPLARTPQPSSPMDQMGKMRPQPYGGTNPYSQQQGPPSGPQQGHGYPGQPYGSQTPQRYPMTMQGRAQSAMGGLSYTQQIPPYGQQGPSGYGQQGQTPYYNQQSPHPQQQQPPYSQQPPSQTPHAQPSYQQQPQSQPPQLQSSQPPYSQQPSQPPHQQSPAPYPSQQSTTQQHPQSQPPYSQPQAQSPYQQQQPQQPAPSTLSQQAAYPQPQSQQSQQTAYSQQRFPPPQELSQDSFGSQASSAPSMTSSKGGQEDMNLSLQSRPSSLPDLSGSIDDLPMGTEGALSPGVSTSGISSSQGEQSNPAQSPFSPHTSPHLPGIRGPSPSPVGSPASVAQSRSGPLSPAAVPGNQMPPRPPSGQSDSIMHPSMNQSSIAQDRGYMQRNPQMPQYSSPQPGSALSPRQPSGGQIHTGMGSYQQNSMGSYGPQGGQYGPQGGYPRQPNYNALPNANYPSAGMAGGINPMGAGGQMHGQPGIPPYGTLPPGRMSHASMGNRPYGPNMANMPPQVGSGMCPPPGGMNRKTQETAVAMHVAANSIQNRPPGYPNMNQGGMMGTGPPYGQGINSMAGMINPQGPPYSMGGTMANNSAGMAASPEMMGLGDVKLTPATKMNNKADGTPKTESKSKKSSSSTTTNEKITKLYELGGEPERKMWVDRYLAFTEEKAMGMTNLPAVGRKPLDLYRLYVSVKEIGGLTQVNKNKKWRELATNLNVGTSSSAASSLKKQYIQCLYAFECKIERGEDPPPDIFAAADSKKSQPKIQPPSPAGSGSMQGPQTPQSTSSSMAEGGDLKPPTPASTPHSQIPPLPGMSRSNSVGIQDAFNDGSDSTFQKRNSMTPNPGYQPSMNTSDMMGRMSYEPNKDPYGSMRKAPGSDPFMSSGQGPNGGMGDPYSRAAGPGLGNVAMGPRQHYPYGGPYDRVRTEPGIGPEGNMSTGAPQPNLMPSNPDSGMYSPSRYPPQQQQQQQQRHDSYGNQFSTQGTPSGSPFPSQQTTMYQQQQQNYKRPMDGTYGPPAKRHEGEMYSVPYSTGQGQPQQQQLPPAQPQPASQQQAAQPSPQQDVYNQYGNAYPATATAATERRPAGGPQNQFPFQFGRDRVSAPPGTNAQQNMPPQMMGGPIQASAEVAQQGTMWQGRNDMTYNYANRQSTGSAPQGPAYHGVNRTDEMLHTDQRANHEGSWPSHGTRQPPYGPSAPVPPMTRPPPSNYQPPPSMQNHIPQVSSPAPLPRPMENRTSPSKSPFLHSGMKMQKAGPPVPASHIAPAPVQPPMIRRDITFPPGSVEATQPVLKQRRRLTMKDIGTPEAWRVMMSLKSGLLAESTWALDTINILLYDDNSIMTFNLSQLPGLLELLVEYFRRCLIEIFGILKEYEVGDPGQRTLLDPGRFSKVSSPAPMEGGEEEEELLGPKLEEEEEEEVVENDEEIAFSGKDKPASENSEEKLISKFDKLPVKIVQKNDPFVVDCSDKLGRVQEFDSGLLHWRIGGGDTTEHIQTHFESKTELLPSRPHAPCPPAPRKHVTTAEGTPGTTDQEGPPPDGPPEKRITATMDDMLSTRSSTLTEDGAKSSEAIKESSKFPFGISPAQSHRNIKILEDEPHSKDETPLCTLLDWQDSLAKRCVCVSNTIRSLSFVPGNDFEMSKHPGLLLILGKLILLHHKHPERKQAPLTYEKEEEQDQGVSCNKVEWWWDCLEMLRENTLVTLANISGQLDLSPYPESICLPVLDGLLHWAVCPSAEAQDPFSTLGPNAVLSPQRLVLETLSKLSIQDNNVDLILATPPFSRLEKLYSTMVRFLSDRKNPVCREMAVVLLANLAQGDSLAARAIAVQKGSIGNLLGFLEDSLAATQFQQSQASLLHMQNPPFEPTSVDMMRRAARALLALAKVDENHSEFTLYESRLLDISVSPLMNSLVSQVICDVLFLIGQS
T13 sequence (Q92922 2-1105 limits assumed): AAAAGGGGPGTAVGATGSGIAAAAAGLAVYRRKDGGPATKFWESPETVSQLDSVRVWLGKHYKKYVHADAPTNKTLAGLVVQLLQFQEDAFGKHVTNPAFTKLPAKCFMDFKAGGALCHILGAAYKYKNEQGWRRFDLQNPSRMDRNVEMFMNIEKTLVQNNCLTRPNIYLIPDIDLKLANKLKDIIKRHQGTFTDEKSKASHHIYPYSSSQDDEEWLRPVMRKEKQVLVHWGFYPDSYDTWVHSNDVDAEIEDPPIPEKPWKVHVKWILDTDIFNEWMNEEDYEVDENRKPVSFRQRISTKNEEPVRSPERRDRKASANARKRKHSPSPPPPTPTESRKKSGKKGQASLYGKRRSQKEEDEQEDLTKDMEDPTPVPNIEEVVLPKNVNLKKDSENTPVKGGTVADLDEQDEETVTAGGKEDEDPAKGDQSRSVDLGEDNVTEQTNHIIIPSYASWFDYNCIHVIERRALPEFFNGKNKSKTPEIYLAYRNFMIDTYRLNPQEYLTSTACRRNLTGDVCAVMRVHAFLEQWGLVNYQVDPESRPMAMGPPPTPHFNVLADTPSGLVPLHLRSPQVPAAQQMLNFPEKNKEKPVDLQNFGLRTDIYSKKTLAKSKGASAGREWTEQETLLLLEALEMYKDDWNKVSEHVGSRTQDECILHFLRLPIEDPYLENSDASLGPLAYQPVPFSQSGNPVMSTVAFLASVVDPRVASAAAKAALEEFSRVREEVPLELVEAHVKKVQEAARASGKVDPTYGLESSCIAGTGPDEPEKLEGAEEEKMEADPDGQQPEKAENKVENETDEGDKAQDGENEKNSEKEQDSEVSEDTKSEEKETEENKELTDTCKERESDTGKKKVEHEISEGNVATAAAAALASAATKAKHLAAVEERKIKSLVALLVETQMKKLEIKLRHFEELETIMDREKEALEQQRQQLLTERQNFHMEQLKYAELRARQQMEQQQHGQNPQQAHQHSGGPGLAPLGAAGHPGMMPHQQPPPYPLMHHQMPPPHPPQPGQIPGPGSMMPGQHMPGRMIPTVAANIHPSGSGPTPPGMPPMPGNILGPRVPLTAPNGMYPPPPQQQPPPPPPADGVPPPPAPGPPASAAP
T1 sequence (Q15532 2-418 limits assumed): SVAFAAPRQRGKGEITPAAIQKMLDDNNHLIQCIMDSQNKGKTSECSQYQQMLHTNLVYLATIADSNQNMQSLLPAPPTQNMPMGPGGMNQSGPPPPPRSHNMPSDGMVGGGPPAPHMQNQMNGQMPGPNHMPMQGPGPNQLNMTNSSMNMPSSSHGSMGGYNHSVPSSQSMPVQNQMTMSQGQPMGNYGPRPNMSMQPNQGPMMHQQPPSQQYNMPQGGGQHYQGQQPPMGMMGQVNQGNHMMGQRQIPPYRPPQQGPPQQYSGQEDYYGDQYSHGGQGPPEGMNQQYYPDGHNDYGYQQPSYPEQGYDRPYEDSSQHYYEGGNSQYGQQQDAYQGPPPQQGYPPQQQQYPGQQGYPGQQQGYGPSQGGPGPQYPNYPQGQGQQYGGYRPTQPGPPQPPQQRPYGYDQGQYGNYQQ
T5 sequence (Q92784 whole entry): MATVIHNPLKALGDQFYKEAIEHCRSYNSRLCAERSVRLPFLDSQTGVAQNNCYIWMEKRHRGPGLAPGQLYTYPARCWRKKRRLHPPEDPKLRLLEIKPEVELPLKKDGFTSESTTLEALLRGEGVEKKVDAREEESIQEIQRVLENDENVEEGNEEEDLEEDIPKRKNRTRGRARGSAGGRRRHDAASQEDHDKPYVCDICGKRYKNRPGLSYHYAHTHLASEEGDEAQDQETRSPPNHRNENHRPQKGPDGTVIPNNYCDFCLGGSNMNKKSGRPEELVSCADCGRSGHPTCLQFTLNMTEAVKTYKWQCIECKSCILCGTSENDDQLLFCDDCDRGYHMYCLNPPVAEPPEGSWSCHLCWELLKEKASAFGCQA
T7 sequence (Q92782 whole entry): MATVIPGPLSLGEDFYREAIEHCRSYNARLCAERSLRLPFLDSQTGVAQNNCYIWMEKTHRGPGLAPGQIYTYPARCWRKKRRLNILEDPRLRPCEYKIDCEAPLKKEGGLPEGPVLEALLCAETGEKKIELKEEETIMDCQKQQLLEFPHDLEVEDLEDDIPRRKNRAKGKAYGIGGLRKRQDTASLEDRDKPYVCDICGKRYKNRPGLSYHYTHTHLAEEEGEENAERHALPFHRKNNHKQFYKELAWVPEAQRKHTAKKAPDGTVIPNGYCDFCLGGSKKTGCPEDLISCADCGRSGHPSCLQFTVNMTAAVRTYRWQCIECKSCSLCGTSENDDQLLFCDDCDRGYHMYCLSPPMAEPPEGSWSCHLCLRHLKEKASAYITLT
T11 sequence (Q969G3 whole entry): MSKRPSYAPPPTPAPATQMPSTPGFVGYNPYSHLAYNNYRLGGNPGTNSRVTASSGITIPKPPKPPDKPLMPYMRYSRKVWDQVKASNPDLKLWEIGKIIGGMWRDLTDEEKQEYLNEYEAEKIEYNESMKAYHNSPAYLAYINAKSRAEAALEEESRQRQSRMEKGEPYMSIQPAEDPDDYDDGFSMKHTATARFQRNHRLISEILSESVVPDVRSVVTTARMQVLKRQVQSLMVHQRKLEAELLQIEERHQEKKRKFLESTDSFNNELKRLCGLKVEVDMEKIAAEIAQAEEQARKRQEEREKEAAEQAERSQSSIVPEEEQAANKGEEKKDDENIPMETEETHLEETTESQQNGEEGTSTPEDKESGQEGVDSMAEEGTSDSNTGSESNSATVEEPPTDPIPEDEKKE

B1: HA-SMARCD1 (other, human, UniProt Q96GM5 1-515, looked up)
chain: MAARAGFQSVAPSGGAGASGGAGAAAALGPGGTPGPPVRMGPAPGQGLYRSPMPGAAYPRPGMLPGSRMTPQGPSMGPPGYGGNPSVRPGLAQSGMDQSRKRPAPQQIQQVQQQAVQNRNHNAKKKKMADKILPQRIRELVPESQAYMDLLAFERKLDQTIMRKRLDIQEALKRPIKQKRKLRIFISNTFNPAKSDAEDGEGTVASWELRVEGRLLEDSALSKYDATKQKRKFSSFFKSLVIELDKDLYGPDNHLVEWHRTATTQETDGFQVKRPGDVNVRCTVLLMLDYQPPQFKLDPRLARLLGIHTQTRPVIIQALWQYIKTHKLQDPHEREFVICDKYLQQIFESQRMKFSEIPQRLHALLMPPEPIIINHVISVDPNDQKKTACYDIDVEVDDTLKTQMNSFLLSTASQQEIATLDNKIHETIETINQLKTQREFMLSFARDPQGFINDWLQSQCRDLKTMTDVVGNPEEERRAEFYFQPWAQEAVCRYFYSKVQQRRQELEQALGIRNT
notes: also called BAF60A; Q96GM5_SMRD1; not shown: HA tag
[1]
  total peptides: 3 peptides
  unique peptides: 2 peptides
[2]
  total peptides: 55 peptides
  unique peptides: 41 peptides
[3]
  total peptides: 153 peptides
  unique peptides: 53 peptides
[4]
  total peptides: 1 peptides
  unique peptides: 1 peptides
[5]
  total peptides: 2 peptides
  unique peptides: 1 peptides
[6]
  total peptides: 206 peptides
  unique peptides: 74 peptides
[7]
  total peptides: 1 peptides
  unique peptides: 1 peptides
[8]
  total peptides: 8 peptides
  unique peptides: 2 peptides
[9]
  total peptides: 189 peptides
  unique peptides: 75 peptides
[10]
  total peptides: 172 peptides
  unique peptides: 55 peptides
[11]
  total peptides: 114 peptides
  unique peptides: 33 peptides
[12]
  total peptides: 1 peptides
  unique peptides: 1 peptides
[13]
  total peptides: 403 peptides
  unique peptides: 88 peptides
[14]
  total peptides: 321 peptides
  unique peptides: 100 peptides
[15]
  total peptides: 3 peptides
  unique peptides: 2 peptides

B2: PHF10 (other, human, UniProt Q8WUB8 2-498, looked up)
chain: AAAAGPGAALSPRPCDSDPATPGAQSPKDDNEDNSNDGTQPSKRRRMGSGDSSRSCETSSQDLGFSYYPAENLIEYKWPPDETGEYYMLQEQVSEYLGVTSFKRKYPDLERRDLSHKEKLYLRELNVITETQCTLGLTALRSDEVIDLMIKEYPAKHAEYSVILQEKERQRITDHYKEYSQMQQQNTQKVEASKVPEYIKKAAKKAAEFNSNLNRERMEERRAYFDLQTHVIQVPQGKYKVLPTERTKVSSYPVALIPGQFQEYYKRYSPDELRYLPLNTALYEPPLDPELPALDSDGDSDDGEDGRGDEKRKNKGTSDSSSGNVSEGESPPDSQEDSFQGRQKSKDKAATPRKDGPKRSVLSKSVPGYKPKVIPNAICGICLKGKESNKKGKAESLIHCSQCENSGHPSCLDMTMELVSMIKTYPWQCMECKTCIICGQPHHEEEMMFCDMCDRGYHTFCVGLGAIPSGRWICDCCQRAPPTPRKVGRRGKNSKEG
notes: Endogenous PBAF subunit; numbering on the printed UniProt entry; also called BAF45A
[16]
  binding result: binds

B3: GLTSCR1L (BRD4 Interacting Chromatin Remodeling Complex Associated Protein Like) (other, human, UniProt Q6AI39 1-1079, looked up)
chain: MDDDDDSCLLDLIGDPQALNYFLHGPSNKSSNDDLTNAGYSAANSNSIFANSSNADPKSSLKGVSNQLGEGPSDGLPLSSSLQFLEDELESSPLPDLTEDQPFDILQKSLQEANITEQTLAEEAYLDASIGSSQQFAQAQLHPSSSASFTQASNVSNYSGQTLQPIGVTHVPVGASFASNTVGVQHGFMQHVGISVPSQHLSNSSQISGSGQIQLIGSFGNHPSMMTINNLDGSQIILKGSGQQAPSNVSGGLLVHRQTPNGNSLFGNSSSSPVAQPVTVPFNSTNFQTSLPVHNIIIQRGLAPNSNKVPINIQPKPIQMGQQNTYNVNNLGIQQHHVQQGISFASASSPQGSVVGPHMSVNIVNQQNTRKPVTSQAVSSTGGSIVIHSPMGQPHAPQSQFLIPTSLSVSSNSVHHVQTINGQLLQTQPSQLISGQVASEHVMLNRNSSNMLRTNQPYTGPMLNNQNTAVHLVSGQTFAASGSPVIANHASPQLVGGQMPLQQASPTVLHLSPGQSSVSQGRPGFATMPSVTSMSGPSRFPAVSSASTAHPSLGSAVQSGSSGSNFTGDQLTQPNRTPVPVSVSHRLPVSSSKSTSTFSNTPGTGTQQQFFCQAQKKCLNQTSPISAPKTTDGLRQAQIPGLLSTTLPGQDSGSKVISASLGTAQPQQEKVVGSSPGHPAVQVESHSGGQKRPAAKQLTKGAFILQQLQRDQAHTVTPDKSHFRSLSDAVQRLLSYHVCQGSMPTEEDLRKVDNEFETVATQLLKRTQAMLNKYRCLLLEDAMRINPSAEMVMIDRMFNQEERASLSRDKRLALVDPEGFQADFCCSFKLDKAAHETQFGRSDQHGSKASSSLQPPAKAQGRDRAKTGVTEPMNHDQFHLVPNHIVVSAEGNISKKTECLGRALKFDKVGLVQYQSTSEEKASRREPLKASQCSPGPEGHRKTSSRSDHGTESKLSSILADSHLEMTCNNSFQDKSLRNSPKNEVLHTDIMKGSGEPQPDLQLTKSLETTFKNILELKKAGRQPQSDPTVSGSVELDFPNFSPMASQENCLEKFIPDHSEGVVETDSILEAAVNSILEC
notes: also called BICRAL; HA-GLTSCR1L
[17]
  binding result: binds

B4: BRD7 (Bromodomain-containing protein 7) (other, human, UniProt Q9NPI1 1-651, looked up)
chain: MGKKHKKHKSDKHLYEEYVEKPLKLVLKVGGNEVTELSTGSSGHDSSLFEDKNDHDKHKDRKRKKRKKGEKQIPGEEKGRKRRRVKEDKKKRDRDRVENEAEKDLQCHAPVRLDLPPEKPLTSSLAKQEEVEQTPLQEALNQLMRQLQRKDPSAFFSFPVTDFIAPGYSMIIKHPMDFSTMKEKIKNNDYQSIEELKDNFKLMCTNAMIYNKPETIYYKAAKKLLHSGMKILSQERIQSLKQSIDFMADLQKTRKQKDGTDTSQSGEDGGCWQREREDSGDAEAHAFKSPSKENKKKDKDMLEDKFKSNNLEREQEQLDRIVKESGGKLTRRLVNSQCEFERRKPDGTTTLGLLHPVDPIVGEPGYCPVRLGMTTGRLQSGVNTLQGFKEDKRNKVTPVLYLNYGPYSSYAPHYDSTFANISKDDSDLIYSTYGEDSDLPSDFSIHEFLATCQDYPYVMADSLLDVLTKGGHSRTLQEMEMSLPEDEGHTRTLDTAKEMEITEVEPPGRLDSSTQDRLIALKAVTNFGVPVEVFDSEEAEIFQKKLDETTRLLRELQEAQNERLSTRPPPNMICLLGPSYREMHLAEQVTNNLKELAQQVTPGDIVSTYGVRKAMGISIPSPVMENNFVDLTEDTEEPKKTDVAECGPGGS
notes: Endogenous subunit co-purified in native PBAF complex; The crosslink positions count on Q9NPI1; also called Q9NPI1
[18]
  binding result: binds

Reference: patent US20230035235A1 (published 2023)
